For test [1], the target named is Taxol-stabilized microtubules enriched in tyrosinated HeLa tubulin (human (endogenous in HeLa) | not stated) (UniProt P68363). Briefly: single-molecule TIRF microscopy.
For test [2] the target is unchanged. Briefly: single-molecule TIRF microscopy. This is another data set of the same source.
The target is the same in test [3]. Briefly: single-molecule TIRF microscopy. This is another data set of the same source.
Test [4] addresses Taxol-stabilized microtubules enriched in detyrosinated HeLa tubulin (human (endogenous in HeLa) | not stated) (UniProt P68363). As to the kind of experiment: single-molecule TIRF microscopy.
Test [5] addresses Taxol-stabilized microtubules enriched in tyrosinated HeLa tubulin (human (endogenous in HeLa) | not stated) (UniProt P68363). As to the kind of experiment: single-molecule TIRF microscopy. The source holds these as a separate data set.
Test [6] has the same target. Briefly: single-molecule TIRF microscopy. The source holds these as a separate data set.
Test [7] has as its target Taxol-stabilized microtubules enriched in detyrosinated HeLa tubulin (human (endogenous in HeLa) | not stated) (UniProt P68363). Briefly: single-molecule TIRF microscopy. This is another data set of the same source.
In test [8] the target is GMPCPP-stabilized HeLa cell microtubules (human (endogenous in HeLa)) (UniProt P68363). As to the kind of experiment: cryo-EM structure.
For test [9] the target is unchanged. Briefly: cryo-EM structure. The source holds these as a separate data set.

This note sets out measurements from publication PMC9750192.

Values joined by “and” are separate entries in the source; they are usually repeats but may differ in a detail not shown here. Identical values can stand only once. Like-named read-outs stand apart in the source and are kept apart here. Where only a bound is given, the exact number is not on record here.

Sequence of Taxol-stabilized microtubules enriched in detyrosinated HeLa tubulin (human (endogenous in HeLa) | not stated) (P68363 1-450, chain 1 of 2): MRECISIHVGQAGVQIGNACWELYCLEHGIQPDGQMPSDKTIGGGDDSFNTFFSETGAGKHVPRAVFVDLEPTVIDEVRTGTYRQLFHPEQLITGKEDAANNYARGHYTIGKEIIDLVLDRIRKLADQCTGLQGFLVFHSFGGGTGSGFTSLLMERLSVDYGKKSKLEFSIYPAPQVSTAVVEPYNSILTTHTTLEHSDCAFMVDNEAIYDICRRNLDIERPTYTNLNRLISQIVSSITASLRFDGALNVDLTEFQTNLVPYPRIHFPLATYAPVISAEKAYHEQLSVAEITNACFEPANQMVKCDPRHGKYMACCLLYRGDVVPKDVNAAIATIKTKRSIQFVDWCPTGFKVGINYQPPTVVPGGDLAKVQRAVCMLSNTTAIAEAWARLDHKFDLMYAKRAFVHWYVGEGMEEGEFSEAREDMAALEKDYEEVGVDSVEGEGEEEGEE
Sequence of Taxol-stabilized microtubules enriched in detyrosinated HeLa tubulin (human (endogenous in HeLa) | not stated) (P07437 whole entry, chain 2 of 2, further chain): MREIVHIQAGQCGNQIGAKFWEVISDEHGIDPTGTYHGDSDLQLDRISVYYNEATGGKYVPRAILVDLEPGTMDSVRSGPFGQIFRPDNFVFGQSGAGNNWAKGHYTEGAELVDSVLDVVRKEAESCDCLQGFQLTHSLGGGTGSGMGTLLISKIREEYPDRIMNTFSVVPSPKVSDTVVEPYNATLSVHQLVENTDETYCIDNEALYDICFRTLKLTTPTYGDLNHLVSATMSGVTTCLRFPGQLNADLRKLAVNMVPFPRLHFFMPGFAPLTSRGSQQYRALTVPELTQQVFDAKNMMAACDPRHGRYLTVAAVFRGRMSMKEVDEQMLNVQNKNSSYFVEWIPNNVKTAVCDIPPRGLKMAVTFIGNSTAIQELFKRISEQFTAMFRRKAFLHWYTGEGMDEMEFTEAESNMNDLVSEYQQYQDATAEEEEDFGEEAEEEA
Sequence of full-length sfGFP-VASH2–SVBP complex (Q86V25 whole entry): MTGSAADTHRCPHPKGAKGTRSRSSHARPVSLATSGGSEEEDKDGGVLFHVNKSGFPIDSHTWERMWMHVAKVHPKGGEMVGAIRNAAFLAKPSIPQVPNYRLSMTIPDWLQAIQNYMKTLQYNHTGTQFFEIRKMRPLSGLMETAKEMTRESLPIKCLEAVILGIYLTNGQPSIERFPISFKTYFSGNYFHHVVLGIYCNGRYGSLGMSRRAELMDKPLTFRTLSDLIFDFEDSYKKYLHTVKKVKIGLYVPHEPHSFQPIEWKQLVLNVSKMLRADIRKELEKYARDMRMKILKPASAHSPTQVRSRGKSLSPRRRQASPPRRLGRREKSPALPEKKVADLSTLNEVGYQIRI
Sequence of full-length sfGFP-VASH2–SVBP complex (Q8N300 whole entry): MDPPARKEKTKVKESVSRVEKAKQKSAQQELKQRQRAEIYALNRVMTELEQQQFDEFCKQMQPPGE
Sequence of full-length sfGFP-VASH1–SVBP complex (Q7L8A9 whole entry): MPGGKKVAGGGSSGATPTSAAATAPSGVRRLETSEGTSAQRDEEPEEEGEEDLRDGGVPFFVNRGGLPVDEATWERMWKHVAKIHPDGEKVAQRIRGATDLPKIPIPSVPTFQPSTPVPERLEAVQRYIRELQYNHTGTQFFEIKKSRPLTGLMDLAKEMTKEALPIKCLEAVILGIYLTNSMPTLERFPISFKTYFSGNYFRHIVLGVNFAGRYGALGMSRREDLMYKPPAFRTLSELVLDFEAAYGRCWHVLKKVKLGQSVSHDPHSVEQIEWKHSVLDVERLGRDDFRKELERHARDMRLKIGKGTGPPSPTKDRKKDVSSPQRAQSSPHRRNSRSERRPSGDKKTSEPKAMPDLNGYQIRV
Sequence of full-length sfGFP-VASH1–SVBP complex (Q8N300 whole entry): as the sequence (Q8N300 whole entry) above
Sequence of Taxol-stabilized microtubules enriched in tyrosinated HeLa tubulin (human (endogenous in HeLa) | not stated) (P68363 whole entry, chain 1 of 2): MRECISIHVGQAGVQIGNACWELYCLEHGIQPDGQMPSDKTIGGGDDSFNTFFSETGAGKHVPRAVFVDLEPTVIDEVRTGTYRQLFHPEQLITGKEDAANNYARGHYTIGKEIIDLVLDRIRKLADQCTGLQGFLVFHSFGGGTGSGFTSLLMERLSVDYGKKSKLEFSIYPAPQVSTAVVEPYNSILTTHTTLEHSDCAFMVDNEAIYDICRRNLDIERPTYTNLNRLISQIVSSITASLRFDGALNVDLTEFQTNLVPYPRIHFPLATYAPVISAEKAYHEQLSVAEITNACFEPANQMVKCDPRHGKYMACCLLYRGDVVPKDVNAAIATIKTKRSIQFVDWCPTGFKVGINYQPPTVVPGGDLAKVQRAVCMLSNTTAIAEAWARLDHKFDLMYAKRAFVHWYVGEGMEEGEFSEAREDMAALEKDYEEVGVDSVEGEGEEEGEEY
Sequence of Taxol-stabilized microtubules enriched in tyrosinated HeLa tubulin (human (endogenous in HeLa) | not stated) (P07437 whole entry, chain 2 of 2, further chain): as the sequence (P07437 whole entry, chain 2 of 2, further chain) above

With “full-length sfGFP-VASH1–SVBP complex (from UniProt Q7L8A9-1 1-365; Q8N300 1-66)”, the residence time τ in [1] was 1.2 s; in [2], 0.8 s; in test [3], 0.5 s and 0.8 s; in test [4] it was 0.5 s; in test [5] it was 0.2 s. For the same substance, the results for the binding frequency (min^−1.nM^−1.µm^-1) in test [2], in [3] and in test [5] were 51.6, 80.8 and 3, respectively. In [3], this substance had a mean covering of the microtubule surface during a 45 s movie of 75%.
Consider “full-length sfGFP-VASH2–SVBP complex (from UniProt Q86V25-1 1-355; Q8N300 1-66)”, for which the residence time τ in [1] was greater than 12.9 s; in test [3] it was greater than 11 s; in test [6], 0.9 s; in test [7], 0.6 s; in test [5], 3.9 s. Besides, in test [3], the binding frequency (min^−1.nM^−1.µm^-1) was found to be 13. The substance further returned a mean covering of the microtubule surface during a 45 s movie in [3] of 25%.
On to “catalytically dead full-length sfGFP-VASH2(C158A)–SVBP complex (from UniProt Q86V25-1 1-355; Q8N300 1-66)”, for which, in test [3], the binding frequency (min^−1.nM^−1.µm^-1) was found to be 13.9, the mean covering of the microtubule surface during a 45 s movie is 28% and the residence time τ is greater than 14.6 s.
For “dead VASH1 core domain (sfGFP-VASH1 57–307 C169A) in complex with SVBP (from UniProt Q7L8A9-1 57-307; Q8N300 1-66)”, the binding frequency (min-1.nM^−1.µm^−1) in [3] was found to be 70.7.
Consider “catalytically dead full-length sfGFP-VASH1(C169A)–SVBP complex (from UniProt Q7L8A9-1 1-365; Q8N300 1-66)”, for which the binding frequency (min^−1.nM^−1.µm^-1) in test [2] came to 86.4. In addition, in test [3], the binding frequency (min-1.nM^−1.µm^−1) was 80.4; the binding frequency (min^−1.nM^−1.µm^-1) amounted to 132; the mean covering of the microtubule surface during a 45 s movie was determined as 82%; the residence time τ is 1 s and 1.2 s. Also, in test [4], the residence time τ was determined as 0.6 s.
As for “catalytically dead VASH2(Cys158Ala)–SVBP complex for cryo-EM (from UniProt Q86V25 1-355; Q8N300 1-66)”, the values for the occupancy of the binding sites on the microtubule in test [8] and in test [9] were 40% and 50.9%, respectively.
